Positions of bridges follow the written chain, without caps; N, C: chain ends.
B1: Compound No. 99 (peptide)
peptide: {CH2CO}-FLIVIRDRVFRCG-NH2
modifications: thioether N-12
notes: Macrocyclic peptide; parent of the Formula III series
B2: Compound No. 111 (peptide)
peptide: FLIVIRDRFFRCG
HELM: PEPTIDE1{[O=C(C[*:3])[*:2]].F.L.I.V.I.R.D.R.F.F.R.C.G.[am]}$PEPTIDE1,PEPTIDE1,1:R3-13:R3$$$V2.0
SMILES: CC[C@H](C)[C@@H]1NC(=O)[C@H](CC(C)C)NC(=O)[C@H](Cc2ccccc2)NC(=O)CSC[C@@H](C(=O)NCC(N)=O)NC(=O)[C@H](CCCNC(=N)N)NC(=O)[C@H](Cc2ccccc2)NC(=O)[C@H](Cc2ccccc2)NC(=O)[C@H](CCCNC(=N)N)NC(=O)[C@H](CC(=O)O)NC(=O)[C@H](CCCNC(=N)N)NC(=O)[C@H]([C@@H](C)CC)NC(=O)[C@H](C(C)C)NC1=O
notes: Macrocyclic variant of Compound No. 99
B3: Example 3526 (peptide)
peptide: FFXGDVFYGYYLCG
HELM: PEPTIDE1{[O=C(C[*:3])[*:2]].F.[meF].[CCCC[C@@H](C(=O)[*:2])N(C)[*:1]].[Sar].D.V.[meF].Y.[Sar].Y.Y.L.C.G.[am]}$PEPTIDE1,PEPTIDE1,1:R3-14:R3$$$V2.0
SMILES: CCCC[C@H]1C(=O)N(C)CC(=O)N[C@@H](CC(=O)O)C(=O)N[C@@H](C(C)C)C(=O)N(C)[C@@H](Cc2ccccc2)C(=O)N[C@@H](Cc2ccc(O)cc2)C(=O)N(C)CC(=O)N[C@@H](Cc2ccc(O)cc2)C(=O)N[C@@H](Cc2ccc(O)cc2)C(=O)N[C@@H](CC(C)C)C(=O)N[C@H](C(=O)NCC(N)=O)CSCC(=O)N[C@@H](Cc2ccccc2)C(=O)N(C)[C@@H](Cc2ccccc2)C(=O)N1C
notes: ClAc-Phe-[N-Me]Phe-[N-Me]Nle-Sar-Asp-Val-[N-Me]Phe-Tyr-Sar-Tyr-Tyr-Leu-Cys-Gly-NH2, cyclised

Key:
hPDL1(19-239)-TVMV-His [1] = molecular target: T1, hPDL1(19-239)-TVMV-His (human, UniProt Q9NZQ7 19-239); test: HTRF competition, inhibitor titrated against PD-1-Ig binding to PD-L1-His
T1 construct: The text says amino acids 18-239, the construct name says 19-239; also called PD-L1-His; PD-L1-TVMV-His
Experimental: (§1) All binding studies were performed in an HTRF assay buffer consisting of dPBS supplemented with 0.1% (w/v) bovine serum albumin and 0.05% (v/v) Tween-20. […] PD-L1 fusion proteins from either human, cynomologous macaques, or mouse were used. HTRF detection was achieved using europium crypate-labeled anti-Ig monoclonal antibody (1 nM final) and allophycocyanin (APC) labeled anti-His monoclonal antibody (20 nM final). Antibodies were diluted in HTRF detection buffer and 5 μl was dispensed on top of binding reaction. The reaction was allowed to equilibrate for 30 minutes and signal (665 nm/620 nm ratio) was obtained using an EnVision fluorometer. […]
HTRF Experiments were performed essentially as outlined supra. Variant macrocyclic peptides were created as outlined herein.
T1 sequence (Q9NZQ7 other isoform, or with tags, fused parts or gaps limits assumed): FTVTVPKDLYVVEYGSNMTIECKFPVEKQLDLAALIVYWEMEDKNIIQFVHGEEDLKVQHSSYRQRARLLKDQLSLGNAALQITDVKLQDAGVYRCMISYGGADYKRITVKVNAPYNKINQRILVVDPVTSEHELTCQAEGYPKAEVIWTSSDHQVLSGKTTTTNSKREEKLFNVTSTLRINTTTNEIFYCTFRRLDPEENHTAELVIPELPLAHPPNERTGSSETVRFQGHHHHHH

hPDL1(19-239)-TVMV-His [2] = molecular target: T1, hPDL1(19-239)-TVMV-His; test: as above; remark: listed apart in the source
Experimental: as §1

hPDL1(19-239)-TVMV-His [3] = molecular target: T2, hPDL1(19-239)-TVMV-His (human, UniProt Q9NZQ7 19-239); test: HTRF competition, PD-1-Ig binding to PD-L1-His
T2 construct: The text says amino acids 18-239, the construct name says 19-239; also called PD-L1-His; PD-L1-TVMV-His
T2 sequence (Q9NZQ7 other isoform, or with tags, fused parts or gaps limits assumed): as above

[4] = molecular target: T3, human PD-L1 expressed on cells (human, UniProt Q9NZQ7 19-290); test: cell binding assay, PE-labeled PD-1-Ig on cells over-expressing human PD-L1, high-content imaging
T3 construct: whole, on cells; In the CMV recall assay PD-L1 is the endogenous protein on donor PBMC; also called hPD-L1; LK35.2-hPD-L1
T3 sequence (Q9NZQ7 19-290): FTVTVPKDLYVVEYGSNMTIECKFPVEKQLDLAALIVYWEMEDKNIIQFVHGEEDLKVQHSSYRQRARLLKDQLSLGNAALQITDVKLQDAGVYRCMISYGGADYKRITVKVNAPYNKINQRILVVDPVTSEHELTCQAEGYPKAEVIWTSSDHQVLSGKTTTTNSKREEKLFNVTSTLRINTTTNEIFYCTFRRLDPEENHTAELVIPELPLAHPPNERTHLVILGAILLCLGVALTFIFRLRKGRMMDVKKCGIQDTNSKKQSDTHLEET

Binder	IC50 (hPDL1(19-239)-TVMV-His [1]) [nM]	IC50 (hPDL1(19-239)-TVMV-His [2]) [nM]	IC50 (hPDL1(19-239)-TVMV-His [3]) [nM]	IC50 [4] [nM]
B1	153	153		
B2	540			
B3			132	629

— patent publication US20140294898A1 (published 2014)
